Key:
[1] = target: CD40/Fc fusion protein (human) (UniProt P25942); experiment: BIAcore biosensor; CD40/Fc captured on the chip; second experiment
[2] = target: CD40/Fc fusion protein (human) (UniProt P25942); experiment: BIAcore biosensor; CD40/Fc captured on the chip; second experiment; K2 (site 2); site 1 not detected
[3] = target: CD40/Fc fusion protein (human) (UniProt P25942); experiment: BIAcore biosensor; CD40/Fc captured on the chip; first experiment
[4] = target: CD40/Fc fusion protein (human) (UniProt P25942); experiment: BIAcore biosensor; CD40/Fc captured on the chip; first experiment; K1 (site 1)
[5] = target: CD40/Fc fusion protein (human) (UniProt P25942); experiment: BIAcore biosensor; CD40/Fc captured on the chip; first experiment; K2 (site 2)
[6] = target: CD40/Fc fusion protein (human) (UniProt P25942); experiment: BIAcore biosensor; CD40/Fc captured on the chip; second experiment; K1 (site 1)
[7] = target: CD40/Fc fusion protein (human) (UniProt P25942); experiment: BIAcore biosensor; CD40/Fc captured on the chip; second experiment; K2 (site 2)
[8] = target: CD40/Fc fusion protein (human) (UniProt P25942); experiment: BIAcore biosensor; CD40/Fc captured by goat anti-human IgG1 Fc on the chip, CD40-L construct at increasing concentrations; first experiment
[9] = target: CD40 on cells that express CD40 (UniProt P25942); experiment: cell-based or functional assay
Sequence of CD40 on cells that express CD40 (P25942 21-277 limits assumed): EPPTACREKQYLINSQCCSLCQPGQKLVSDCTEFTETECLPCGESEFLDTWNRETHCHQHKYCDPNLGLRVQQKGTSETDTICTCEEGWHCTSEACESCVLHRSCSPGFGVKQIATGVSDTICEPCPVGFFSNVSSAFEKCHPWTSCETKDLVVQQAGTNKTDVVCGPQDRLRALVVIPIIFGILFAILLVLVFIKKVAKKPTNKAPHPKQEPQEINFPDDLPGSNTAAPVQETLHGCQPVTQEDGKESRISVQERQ

Sequence of trimeric human CD40-L (oligomerizing zipper fusion, Example 15) (P29965 51-261 limits assumed): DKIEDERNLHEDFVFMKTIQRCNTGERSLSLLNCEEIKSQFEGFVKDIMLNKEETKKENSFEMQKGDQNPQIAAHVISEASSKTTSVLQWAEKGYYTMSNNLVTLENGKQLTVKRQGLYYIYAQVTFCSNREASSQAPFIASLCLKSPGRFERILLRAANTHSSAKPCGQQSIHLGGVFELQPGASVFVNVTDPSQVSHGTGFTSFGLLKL
Sequence of CD40/Fc fusion protein (human) (P25942 21-193): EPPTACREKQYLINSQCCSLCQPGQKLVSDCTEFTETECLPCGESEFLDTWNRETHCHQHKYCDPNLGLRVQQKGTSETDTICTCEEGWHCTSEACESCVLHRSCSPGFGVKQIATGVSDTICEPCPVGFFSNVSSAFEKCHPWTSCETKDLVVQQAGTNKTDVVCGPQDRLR

## monomeric human CD40-L, preparation #1 (ligand)
[1]
  Site2 (mol/mol CD40/Fc) (mol/mol CD40/Fc): 1.2
[2]
  Ka: 4.6e+07 M⁻¹

## monomeric human CD40-L, preparation #2 (ligand)
[1]
  Site2 (mol/mol CD40/Fc) (mol/mol CD40/Fc): 1.27
[2]
  Ka: 1.1e+07 M⁻¹

## trimeric human CD40-L (oligomerizing zipper fusion, Example 15) (from UniProt P29965 51-261) (ligand)
[3]
  Site2 (mol/mol CD40/Fc) (mol/mol CD40/Fc): 0.68
[1]
  Site1 (mol/mol CD40/Fc) (mol/mol CD40/Fc): 0.26
  Site2 (mol/mol CD40/Fc) (mol/mol CD40/Fc): 0.41
[4]
  Ka: 5e+09 M⁻¹
[5]
  Ka: 7.5e+07 M⁻¹
[6]
  Ka: 6.6e+08 M⁻¹
[7]
  Ka: 2.6e+07 M⁻¹
[8]
  Site1 (mol/mol CD40/Fc) (mol/mol CD40/Fc): 0.04

## trimeric murine CD40-L (oligomerizing zipper fusion) (ligand)
[3]
  Site1 (mol/mol CD40/Fc) (mol/mol CD40/Fc): 0.02
  Site2 (mol/mol CD40/Fc) (mol/mol CD40/Fc): 0.44
[4]
  Ka: 6e+10 M⁻¹
[5]
  Ka: 1.6e+08 M⁻¹

## wild type CD40 ligand/zipper domain fusion protein (WT) expressed in yeast
[9]
  B-cell proliferation (U/µg), Experiment 1; WT: 77 U/µg
  B-cell proliferation (U/µg), Experiment 2; WT: 15 U/µg
